According to patent US20190125833A1 (Five Prime, published 2019):

T1: Myostatin (UniProt O14793 267-375, limits assumed)
T1 sequence (looked up): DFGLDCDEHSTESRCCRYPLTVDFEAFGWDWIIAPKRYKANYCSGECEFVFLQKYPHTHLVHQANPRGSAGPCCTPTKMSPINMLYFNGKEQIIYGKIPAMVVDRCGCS


Target: T1, Myostatin
Assay: cell-based or functional assay

| IC50 of inhibition of myostatin dependent SMAD2/3 activation (luciferase reporter, HEK293, 0.1 nM myostatin) [nM] | fold difference of IC50 against hNOPE (1-620) ECD-FC [fold] | fold difference of IC50 against hNOPE (1-957) ECD-FC [fold] | Binder |
| --- | --- | --- | --- |
| 0.068 | 2.5 | 7 | mNOPE (1-955) ECD-FC (Fc fusion, not shown: a dimerising Fc or GST) ELPLPQETTVKLSCDEGPLQVILGPEQAVVLDCTLGATAAGPPTRVTWSKDGDTVLEHENLHLLPNGSLWLSSPLEQEDSDDEEALRIWKVTEGSYSCLAHSPLGVVASQVAVVKLATLEDFSLHPESQIVEENGTARFECHTKGLPAPIITWEKDQVTVPEESRLITLPNGVLQILDVQDSDAGSYRCVATNSARQRFSQEASLTVALRGSLEATRGQDVVIVAAPENTTVVSGQSVVMECVASADPTPFVSWVRQDGKPISTDVIVLGRTNLLIASAQPRHSGVYVCRANKPRTRDFATAAAELRVLAAPAISQAPEALSRTRASTARFVCRASGEPRPALHWLHDGIPLRPNGRVKVQGGGGSLVITQIGLQDAGYYQCVAENSAGTACAAAPLAVVVREGLPSAPTRVTATPLSSSSVLVAWERPELHSEQIIGFSLHYQKARGVDNVEYQFAVNNDTTELQVRDLEPNTDYEFYVVAYSQLGASRTSSPALVHTLDDVPSAAPQLTLSSPNPSDIRVAWLPLPSSLSNGQVLKYKIEYGLGKEDQVFSTEVPGNETQLTLNSLQPNKVYRVRISAGTGAGYGVPSQWMQHRTPGVHNQSHVPFAPAELKVRAKMESLVVSWQPPPHPTQISGYKLYWREVGTEEEADGDRPPGGRGDQAWDVGPVRLKKKVKQYELTQLVPGRLYEVKLVAFNKHEDGYAAVWKGKTEKAPTPDLPIQRGPPLPPAHVHAESNSSTSIWLRWKKPDFTTVKIVNYTVRFGPWGLRNASLVTYYTSSGEDILIGGLKPFTKYEFAVQSHGVDMDGPFGSVVERSTLPDRPSTPPSDLRLSPLTPSTVRLHWCPPTEPNGEIVEYLILYSNNHTQPEHQWTLLTTEGNIFSAEVHGLESDTRYFFKMGARTEVGPGPFSRLQDVITLQKTFSDSLDVHAV |
| 0.5 | – | – | hNOPE (1-957) ECD-FC (Fc fusion, not shown: a dimerising Fc or GST) ELLLPQETTVELSCGVGPLQVILGPEQAAVLNCSLGAAAAGPPTRVTWSKDGDTLLEHDHLHLLPNGSLWLSQPLAPNGSDESVPEAVGVIEGNYSCLAHGPLGVLASQTAVVKLATLADFSLHPESQTVEENGTARFECHIEGLPAPIITWEKDQVTLPEEPRLIVLPNGVLQILDVQESDAGPYRCVATNSARQHFSQEALLSVAHRGSLASTRGQDVVIVAAPENTTVVSGQSVVMECVASADPTPFVSWVRQDGKPISTDVIVLGRTNLLIANAQPWHSGVYVCRANKPRTRDFATAAAELRVLAAPAITQAPEALSRTRASTARFVCRASGEPRPALRWLHNGAPLRPNGRVKVQGGGGSLVITQIGLQDAGYYQCVAENSAGMACAAASLAVVVREGLPSAPTRVTATPLSSSAVLVAWERPEMHSEQIIGFSLHYQKARGMDNVEYQFAVNNDTTELQVRDLEPNTDYEFYVVAYSQLGASRTSTPALVHTLDDVPSAAPQLSLSSPNPSDIRVAWLPLPPSLSNGQVVKYKIEYGLGKEDQIFSTEVRGNETQLMLNSLQPNKVYRVRISAGTAAGFGAPSQWMHHRTPSMHNQSHVPFAPAELKVQAKMESLVVSWQPPPHPTQISGYKLYWREVGAEEEANGDRLPGGRGDQAWDVGPVRLKKKVKQYELTQLVPGRLYEVKLVAFNKHEDGYAAVWKGKTEKAPAPDMPIQRGPPLPPAHVHAESNSSTSIWLRWKKPDFTTVKIVNYTVRFSPWGLRNASLVTYYTSSGEDILIGGLKPFTKYEFAVQSHGVDMDGPFGSVVERSTLPDRPSTPPSDLRLSPLTPSTVRLHWCPPTEPNGEIVEYLILYSSNHTQPEHQWTLLTTQGNIFSAEVHGLESDTRYFFKMGARTEVGPGPFSRLQDVITLQEKLSDSLDMHSVT |
